Tests used:
CD3 epsilon [1] = molecular target: T1, CD3 epsilon (Homo sapiens, UniProt P07766 P07766:23-126); experiment: HPLC size exclusion; negative control sequence; conditions: tags: Fc chimera His tag, Abcam ab220590; label: Cy5
Protocol: Top five candidates (CS6, CS7, CS8, CS9, and CS8c; SEQ ID NOs: 88-92, respectively) were synthesized with a 5(5′) phosphothioated CpG motif and assayed for Human CD3ε (hCD3ε) binding via the HPLC size exclusion column. In this method, the aptamers were labelled with Cy5 complementary sequence to the CpG site (Cy5-CpG’). Then, the folded-labelled candidates are incubated, each, with the CD3ε- recombinant protein or with negative control IgG1 (1 hr at 37℃ and 4℃) and analyzed by HPLC ProSEC 300S size exclusion column (Agilent) at 570 nm absorption. Upon protein binding, the aptamer-protein complex has a greater mass than a free aptamer and as a result, the retention time (RT) at the column is expected to be shorter. Inversely, in the case of non-binding aptamer, the RT in the presence of protein will be the same as in the absence of the protein. As a control, PolyT sequence was used.

CD3 epsilon [2] = molecular target: T1, CD3 epsilon; experiment: SPR; conditions: tags: Fc chimera His tag, Abcam ab220590
Notch2 [3] = molecular target: T2, Notch2 (Homo sapiens, UniProt Q04721 Q04721:26-1677); experiment: thermofluorimetric analysis; conditions: tags: Fc fusion, R&D Systems
T2 sequence (Q04721 26-1677, one chain of several): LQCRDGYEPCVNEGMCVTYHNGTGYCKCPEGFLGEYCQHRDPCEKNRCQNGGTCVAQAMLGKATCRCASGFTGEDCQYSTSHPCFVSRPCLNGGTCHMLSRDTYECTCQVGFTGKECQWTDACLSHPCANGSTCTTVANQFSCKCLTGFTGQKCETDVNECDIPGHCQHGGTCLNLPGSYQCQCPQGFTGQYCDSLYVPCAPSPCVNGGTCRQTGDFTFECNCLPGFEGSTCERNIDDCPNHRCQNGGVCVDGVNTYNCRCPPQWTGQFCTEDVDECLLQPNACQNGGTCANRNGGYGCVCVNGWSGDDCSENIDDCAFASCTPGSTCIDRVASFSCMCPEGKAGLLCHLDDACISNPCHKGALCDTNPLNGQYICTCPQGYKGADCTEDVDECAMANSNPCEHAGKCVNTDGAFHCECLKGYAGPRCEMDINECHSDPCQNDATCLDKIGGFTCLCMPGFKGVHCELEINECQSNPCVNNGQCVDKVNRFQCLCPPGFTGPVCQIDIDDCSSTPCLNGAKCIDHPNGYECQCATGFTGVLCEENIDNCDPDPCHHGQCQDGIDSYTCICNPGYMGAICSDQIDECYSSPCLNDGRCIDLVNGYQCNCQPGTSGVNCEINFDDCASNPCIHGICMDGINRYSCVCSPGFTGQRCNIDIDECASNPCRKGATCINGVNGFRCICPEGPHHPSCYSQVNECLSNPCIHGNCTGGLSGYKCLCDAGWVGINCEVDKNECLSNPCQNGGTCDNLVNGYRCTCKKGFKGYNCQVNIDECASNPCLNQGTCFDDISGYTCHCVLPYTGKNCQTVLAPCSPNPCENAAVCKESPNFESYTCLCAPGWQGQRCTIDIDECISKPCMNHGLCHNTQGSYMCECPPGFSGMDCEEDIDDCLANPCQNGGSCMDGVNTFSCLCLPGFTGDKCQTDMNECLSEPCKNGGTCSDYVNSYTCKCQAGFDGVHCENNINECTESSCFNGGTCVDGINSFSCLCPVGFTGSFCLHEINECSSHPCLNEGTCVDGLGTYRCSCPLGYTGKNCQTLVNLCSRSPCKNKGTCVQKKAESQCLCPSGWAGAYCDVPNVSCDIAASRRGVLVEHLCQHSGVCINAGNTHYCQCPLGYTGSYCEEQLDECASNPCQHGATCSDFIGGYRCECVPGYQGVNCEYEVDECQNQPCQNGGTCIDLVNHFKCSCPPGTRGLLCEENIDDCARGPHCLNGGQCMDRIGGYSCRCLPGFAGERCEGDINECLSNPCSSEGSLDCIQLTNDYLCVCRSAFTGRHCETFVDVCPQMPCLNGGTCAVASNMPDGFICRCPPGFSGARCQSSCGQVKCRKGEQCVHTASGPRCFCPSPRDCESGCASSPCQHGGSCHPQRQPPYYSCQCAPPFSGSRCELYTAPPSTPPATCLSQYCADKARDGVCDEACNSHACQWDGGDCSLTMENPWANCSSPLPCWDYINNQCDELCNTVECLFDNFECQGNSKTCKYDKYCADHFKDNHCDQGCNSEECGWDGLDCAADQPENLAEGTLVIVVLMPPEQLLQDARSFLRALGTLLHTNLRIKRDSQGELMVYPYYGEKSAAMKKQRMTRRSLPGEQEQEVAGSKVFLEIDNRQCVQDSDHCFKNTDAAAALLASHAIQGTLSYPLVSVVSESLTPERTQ
Protocol: (§1) TFA was used to determine the binding of CTL3 with its putative target Notch2.100 nM CTL3, 1 uM SYBR green I (sigma), Fc-Notch2 human (R&D Systems) or Fc-CD160 (abcam) at 20, 40, 80, 160, and 320 nM were mixed together and SYBR green and fluorescence was measured from Temp=25° C. to Temp=95° C. at 1 degree/min using RT-PCR, in triplicates. The subsequent experiment was done with 50 nM of either CTL3 (SEQ ID NO: 3), scrambled-CTL3-A (SEQ ID NO: 86), or scrambled-CTL3-B (SEQ ID NO: 87); 1 µM SYBR green I (sigma); Fc-Notch2 human (R&D Systems), Fc-Notch2 mouse (R&D Systems) or Fc-Notch2 rat at 25, 50, 100 and 200 nM similar to the former experiment.

CD160 = molecular target: T3, CD160 (UniProt O95971 O95971:25-159); experiment: thermofluorimetric analysis; specificity control; conditions: tags: Fc fusion, abcam
T3 sequence: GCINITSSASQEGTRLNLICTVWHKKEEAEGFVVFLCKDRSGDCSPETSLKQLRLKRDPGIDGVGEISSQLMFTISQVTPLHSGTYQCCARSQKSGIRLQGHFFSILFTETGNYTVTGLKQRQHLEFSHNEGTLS
Protocol: as §1
(§2) A Tₘ melting curve profile was generated by measuring SYBR green fluorescence during temperature gradient, to monitor aptamer-protein complexes in the presence of different concentrations of either Notch2 or the non-specific control (CD 160 protein). Only upon the addition of increasing concentrations of Notch2, and not CD160, a dose-dependent change in CTL3-associated fluorescence was measured (FIG. 19). When looking at the total fluorescence graph, high fluorescence intensity can be seen at 25° C., however, when examining the derivative rate of change of […] (dF/dT) curves, the temperature-dependent intensity reached a maximum at 37° C.

Notch2 [4] = molecular target: T2, Notch2; experiment: thermofluorimetric analysis with SYBR green; dose-dependent, saturates between 100-200 nM protein; conditions: tags: Fc fusion, R&D Systems
Protocol: as §1, §2

[5] = molecular target: CD3 epsilon (Jurkat T cells) (Homo sapiens, UniProt P07766 P07766:23-207); experiment: flow; binding to Jurkat cells, 1 h 37 C, PBS 1 mM MgCl2, BSA, tRNA; conditions: tags: native on Jurkat cells ATCC TIB-152; label: Cy5-CpG' complementary strand
Chain of CD3 epsilon (Jurkat T cells) (P07766 23-207, one chain of several): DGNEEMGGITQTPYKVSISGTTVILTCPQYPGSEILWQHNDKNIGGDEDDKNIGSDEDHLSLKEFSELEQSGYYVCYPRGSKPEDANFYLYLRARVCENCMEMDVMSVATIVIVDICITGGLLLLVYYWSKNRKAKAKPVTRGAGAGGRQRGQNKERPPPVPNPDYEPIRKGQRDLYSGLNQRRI
Protocol: 5 x10⁴ Jurkat cells were washed and re-suspended in x1 folding buffer that contain 0.1% BSA and 0.01% tRNA. 0.1-80 nM of CS6 aptamer were labelled with CpG′-Cy5 tag (1:1 ratio) and folded (95℃ 5 min, ice 10 min, and maintenance at 4℃). Next, the DNA aptamers were mixed with the cells and incubated for 1 hr at 37℃ in V shape 96 well plate under gentle shaking conditions. After incubation, the cells were washed twice with folding buffer X1 and analysed via flow cytometry (CytoFlex).
Subsequently CS6 effective concentration 50 (EC₅₀) was evaluated. A serial dilution of -Cy5 labelled aptamer was incubated with Jurkat cells for 1 hr at 37℃ and assessed for binding via flow cytometry (FIG. 27).

T1 sequence (P07766 23-126, one chain of several): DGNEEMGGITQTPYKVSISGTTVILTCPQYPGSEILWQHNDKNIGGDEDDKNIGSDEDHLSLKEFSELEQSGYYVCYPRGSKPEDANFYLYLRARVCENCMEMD

B1: PolyT control (ssDNA)
DNA: TCGTCGTCGCGGTTCGCGTCCGTTTTTTTTTTTTTTTTTTTTTTTTTTTTTTTTTTTTTTTTTTTTTTTTTTT
CD3 epsilon [1]
  binding result: no binding

B2: CS6 (ssDNA)
DNA: ATCGTATAAGGGCTGCTTAGGATTGCGATAATACGGTCAA
CD3 epsilon [2]
  Kd: 31 nM

B3: Scrambled-CTL3-B (ssDNA)
DNA: TCTTTCGTTAGCGCTTCTCTCTTGCGATTCCGACCGCATATTCACGTCTT
Notch2 [3]
  binding result: no binding

B4: CTL3 (ssDNA)
DNA: GCATACCTTTCGTATGCCTTTTTGACCCGTATTTTTGCCCTACCCTTCGG
CD160
  binding result: no binding
Notch2 [4]
  binding result: binds

B5: CpG1-CS6 (ssDNA)
DNA: TCGTCGTCGCGGTTCGCGTCCGTATCGTATAAGGGCTGCTTAGGATTGCGATAATACGGTCAA
modifications: PS on first five 5' nucleotides of CpG motif
[5]
  EC50: 19.6 nM

B6: Scrambled-CTL3-A (ssDNA)
DNA: GTTCTTATAATCGCCTCTGCGCTATGTTCTTGCTCGCCTTCCATATCGCT
Notch2 [3]
  binding result: no binding

— patent US20230193285, “BISPECIFIC PERSONALIZED APTAMERS” (Aummune Ltd., published 2023)
